Source: PMC12611769, “Phase-separated NDF−FACT condensates facilitate transcription elongation on chromatin” (Nature Cell Biology, 2025)
Positions count from the first letter of the chain named. Numbers in names are those of the source. One block for each binder: values may come before it.

Tests used:
Settings in all cases: both partners purified
Flag-tagged hSpt16 = target: T1, Flag-tagged hSpt16 (human, UniProt Q9Y5B9 1-1047); assay: pull-down; Ni-NTA beads, His6-tagged NDF (WT, truncates or mutants; 40 pmol) as bait with 20 pmol Flag-tagged hSpt16 or FACT in 300 µl of 10 mM Tris-HCl pH 7.5, 200 mM NaCl, 0.2% Nonidet P-40, 10% glycerol, 4 °C 3 h; SDS-PAGE, silver staining
T1 construct: human SUPT16H (hSpt16); methods print 'Flag-hSpt16', legends 'Spt16-FLAG'; also called Spt16-FLAG; Flag-hSpt16; source: Sf9 cells (pFastBac-FLAG-hSpt16), purified; also co-expressed with untagged hSSRP1 in Sf9, in cell extract
T1 sequence (Q9Y5B9 whole entry, the tested form may be a part): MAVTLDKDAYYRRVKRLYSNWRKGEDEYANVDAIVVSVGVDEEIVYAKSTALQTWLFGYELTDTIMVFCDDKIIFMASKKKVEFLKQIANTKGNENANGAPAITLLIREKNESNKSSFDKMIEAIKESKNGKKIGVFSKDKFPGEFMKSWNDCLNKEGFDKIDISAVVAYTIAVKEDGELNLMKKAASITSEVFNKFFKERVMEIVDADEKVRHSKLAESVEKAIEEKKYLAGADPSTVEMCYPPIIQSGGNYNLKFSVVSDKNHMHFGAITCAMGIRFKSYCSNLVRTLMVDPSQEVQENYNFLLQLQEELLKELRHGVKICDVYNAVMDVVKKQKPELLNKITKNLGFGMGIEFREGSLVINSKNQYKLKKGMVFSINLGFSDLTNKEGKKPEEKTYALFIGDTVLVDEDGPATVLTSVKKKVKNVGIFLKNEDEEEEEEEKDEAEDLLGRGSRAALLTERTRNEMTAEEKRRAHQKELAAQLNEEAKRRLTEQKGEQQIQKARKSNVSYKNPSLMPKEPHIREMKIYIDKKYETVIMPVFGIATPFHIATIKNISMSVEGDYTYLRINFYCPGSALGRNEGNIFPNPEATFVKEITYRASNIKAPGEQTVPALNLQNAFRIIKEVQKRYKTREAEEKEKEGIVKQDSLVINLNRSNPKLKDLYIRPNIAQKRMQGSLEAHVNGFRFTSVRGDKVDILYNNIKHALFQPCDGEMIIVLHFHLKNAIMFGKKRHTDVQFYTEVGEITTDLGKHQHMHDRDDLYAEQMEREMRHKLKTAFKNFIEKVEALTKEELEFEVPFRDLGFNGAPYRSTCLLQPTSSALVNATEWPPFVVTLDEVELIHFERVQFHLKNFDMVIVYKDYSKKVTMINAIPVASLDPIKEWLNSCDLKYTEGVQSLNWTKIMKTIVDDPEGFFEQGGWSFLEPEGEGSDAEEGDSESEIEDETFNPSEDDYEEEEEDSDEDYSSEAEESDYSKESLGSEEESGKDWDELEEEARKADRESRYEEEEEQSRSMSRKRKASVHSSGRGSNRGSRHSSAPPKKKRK

[1] = target: T2, FACT complex used as prey in the FLAG pull-down with NDF-Flag (his-FACT) (human, UniProt Q9Y5B9 1-1047; Q08945 1-709); assay: pull-down; Flag M2 beads, NDF-Flag as bait; 10 mM Tris-HCl pH 7.5, 200 mM NaCl, 0.2% Nonidet P-40, 10% glycerol, 4 °C 3 h; SDS-PAGE, silver staining
T2 construct: human SUPT16H (hSpt16); human SSRP1; the his-tagged subunits are surmised because the bait was held on Flag M2 beads; source: Sf9 cells (Bac-to-Bac), his-FACT subunits expressed separately, purified similar to his-hNDF
T2 sequence (Q9Y5B9 whole entry, chain 1 of 2): as the sequence (Q9Y5B9 whole entry, the tested form may be a part) above
T2 sequence (Q08945 whole entry, chain 2 of 2): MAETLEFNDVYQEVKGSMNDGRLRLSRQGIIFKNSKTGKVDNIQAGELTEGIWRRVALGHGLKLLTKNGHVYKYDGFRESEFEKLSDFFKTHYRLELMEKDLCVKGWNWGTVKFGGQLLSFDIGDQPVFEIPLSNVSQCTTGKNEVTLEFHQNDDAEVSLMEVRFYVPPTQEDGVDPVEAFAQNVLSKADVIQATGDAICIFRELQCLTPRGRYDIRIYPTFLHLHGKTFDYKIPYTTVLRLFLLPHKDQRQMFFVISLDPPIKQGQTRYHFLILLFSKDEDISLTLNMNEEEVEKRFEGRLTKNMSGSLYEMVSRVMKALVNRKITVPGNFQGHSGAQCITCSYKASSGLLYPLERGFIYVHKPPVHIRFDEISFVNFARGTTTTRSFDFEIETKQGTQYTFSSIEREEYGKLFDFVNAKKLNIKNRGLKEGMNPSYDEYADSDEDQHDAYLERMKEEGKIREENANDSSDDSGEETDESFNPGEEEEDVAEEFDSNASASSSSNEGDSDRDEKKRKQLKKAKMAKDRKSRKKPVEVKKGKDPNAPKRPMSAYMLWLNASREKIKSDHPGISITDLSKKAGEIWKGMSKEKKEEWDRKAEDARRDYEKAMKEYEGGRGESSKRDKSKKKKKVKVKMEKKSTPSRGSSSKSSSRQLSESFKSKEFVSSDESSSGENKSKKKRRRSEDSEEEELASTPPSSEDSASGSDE

[2] = target: T3, His6-hSpt16 (recombinant his-tagged Spt16 subunit of FACT) (human, UniProt Q9Y5B9 1-1047); assay: as above
T3 construct: human SUPT16H (hSpt16); The His6 tag was inserted into pFastBac-FLAG-hSpt16; also called his-FACT subunit; source: Sf9 cells (Bac-to-Bac), expressed separately, purified similar to his-hNDF
T3 sequence (Q9Y5B9 whole entry): as the sequence (Q9Y5B9 whole entry, the tested form may be a part) above

[3] = target: T4, Flag-tagged FACT complex (Flag-hSpt16 + untagged hSSRP1) (human, UniProt Q9Y5B9 1-1047; Q08945 1-709); assay: co-sedimentation; sedimentation assay of condensates: NDF and FACT mixed in a 100 mM NaCl buffer without PEG, 10 min at 22 °C, 17,200g 10 min; supernatant and pellet on SDS-PAGE, Coomassie
T4 construct: human SUPT16H (hSpt16); human SSRP1, untagged; complex formed beforehand by co-expression; also called FACT-FLAG; hFACT; source: Sf9 cells, co-expressed, purified (anti-Flag M2 agarose, 3x Flag peptide elution)
T4 sequence (Q9Y5B9 whole entry, chain 1 of 2): as the sequence (Q9Y5B9 whole entry, the tested form may be a part) above
T4 sequence (Q08945 whole entry, chain 2 of 2): as the sequence (Q08945 whole entry, chain 2 of 2) above

binding result (Flag-tagged hSpt16): binds
B1: NDF_K161A, full-length, His6-tagged (natural protein, human, UniProt Q49A26 1-553, looked up)
chain: MAAVSLRLGDLVWGKLGRYPPWPGKIVNPPKDLKKPRGKKCFFVKFFGTEDHAWIKVEQLKPYHAHKEEMIKINKGKRFQQAVDAVEEFLRRAKGKDQTSSHNSSDDKNRRNSSEERSRPNSGDEKRKLSLSEGKVKKNMGEGKKRVSSGSSERGSKSPLARAQEQSPRKRGRPPKDEKDLTIPESSTVKGMMAGPMAAFKWQPTASEPVKDADPHFHHFLLSQTEKPAVCYQAITKKLKICEEETGSTSIQAADSTAVNGSITPTDKKIGFLGLGLMGSGIVSNLLKMGHTVTVWNRTAEKCDLFIQEGARLGRTPAEVVSTCDITFACVSDPKAAKDLVLGPSGVLQGIRPGKCYVDMSTVDADTVTELAQVIVSRGGRFLEAPVSGNQQLSNDGMLVILAAGDRGLYEDCSSCFQAMGKTSFFLGEVGNAAKMMLIVNMVQGSFMATIAEGLTLAQVTGQSQQTLLDILNQGQLASIFLDQKCQNILQGNFKPDFYLKYIQKDLRLAIALGDAVNHPTPMAAAANEVYKRAKALDQSDNDMSAVYRAYIH
notes: human NDF (Glyr1), full-length, K161A; source: bacterial expression (pET21b), purified

binding result [1]: binds
binding result [2]: binds
B2: hNDF-FLAG (recombinant NDF-Flag) (natural protein, human, UniProt Q49A26 1-553, looked up)
chain: B1 chain with A161K
notes: human nucleosome destabilizing factor (NDF; Glyr1); source: bacterial expression (pET21b-hNDF-FLAG), purified as previously described

binding result (Flag-tagged hSpt16): binds
binding result [3]: binds
B3: His6-hNDF, full-length wild type (natural protein, human, UniProt Q49A26 1-553, looked up)
chain: B1 chain with A161K
notes: human nucleosome destabilizing factor (NDF; Glyr1), full-length; vector name has His6 before hNDF, a legend prints 'NDF-his'; also called NDF-his; His6-tagged NDF-WT; source: bacterial expression (pET21b-His6-hNDF), purified as previously described

binding result (Flag-tagged hSpt16): binds
B4: NDF_R162A, full-length, His6-tagged (natural protein, human, UniProt Q49A26 1-553, looked up)
chain: B1 chain with A161K, R162A
notes: human NDF (Glyr1), full-length, R162A; source: bacterial expression (pET21b), purified
